B1: SG-16: 119 amino acid protein (SEQ ID NO:9) encoded by the genome of Eubacterium eligens (protein, listed as Eubacterium eligens)
chain: MTGCSGSKEPDNKTSVDYTVVENADLPEELKKLIESKKDKVMRLTYTTKDYTYVVAGYGTRETSGYSIKVNDVYTGDNALYIDLNLIGPAAGEAVNEVETYPVIVLKMERREESVVFKM
B2: SG-17: 327 amino acid protein (SEQ ID NO:13) encoded by the genome of Eubacterium eligens (protein, listed as Eubacterium eligens)
chain: CNSKIDVKYDYNVEDYVQLGQYENISVQVDKTSIENELIESKIKQDVEDNTTYTEVDRGAIASDQILVTYTATSSGASLSGLTNTDGKTMILGTDTLGLELDELDQALYGMTPGQTKILIVDIPEDYSSDLYKGTRVVFELTMQTVAQANVPMITNAYVKEAFGYDTVEEYRQSIKESLETDINSKVENKIQEDVLSSLQDTFKISSYPDSLMEETRSRLETSIGFYADFSNLSKDEYCQKQYGLSFDDFVKKSVVQQLIMEAIVKDRNMTMREYDYKGSLDDFAADNGYSNADTFVEKFGKDKIVKAMLVQKAQDYVIEHANISYK
B3: SG-18: 267 amino acid protein (SEQ ID NO:19) encoded by the genome of Clostridium bartlettii sp. nov. (protein, listed as Clostridium bartlettii)
chain: EVDSSKEQATSKDEKQVVVATSVAITEILDRLGVEVSGVPQTSYELPESAKGATEIGSPMNPDMEIIKSLNPTDVICVDTLGSDFEKQFEENNINADFYNLSNVDGLKETIAALGEKFNKQDKANEILDEIKEVENKVNSNKKSDDKILVLFGAPGSVMVATDKSYIGNLVELAGGNNIFSNATSSFTQINLEEIIKLNPDKILVMTHAVPEAAKKSVEEELSKDLWKNVNAVKNNDITYLENGYFGMSANLQIVEAVEKLGDILYE
B4: SG-15: 400 amino acid protein (SEQ ID NO:1) encoded by the genome of Eubacterium eligens (protein, listed as Eubacterium eligens)
chain: EYTEIRTASELVEAAKSASGNYKLMTDIDMTGVEWTPWDFSGTFDGNGHSILNLSVKTVSKKTMKTYDGNRKEYKTYGAGFFGVLTGAKVTGLDIYGARIEITTTEPCFAAPIAGLADDSDISDCIIKDTYVSLTDSAKMWGTGGIAGFGSGNLDNITTDVTLVCVDTDAAVRDEQFMGGAYAAGFLNIRNCSITIDGYDSDHGYVHDGGLVGMYMVYPLELSKTYQGEVLNNKVKGMITFFEDNTDRRAYCQANMGEVMNWTYAYSGFTSDFKRNETYDYSVTLLPEMCSNPSYTDVVTEATASDFGYTTHTCSTCGYTYSDTYTIHEHKVDSYSVVKEAASTDKKDGIEAGTCSLCNQTVYREYAANVVTDDNTQATDNKASGTAVKKGMKESTAVFA

Columns and labels:
[1] = system: HCT8 enterocytes and HT29-MTX goblet cells; experiment: Co-culture trans-epithelial electrical resistance (TEER) assay with heat killed E. coli challenge; format: cell-based, human; settings: TEER after 24 hours
Description: Assays were performed as described below in trans-well plates where co-cultures of multiple cell types were performed utilizing a permeable membrane to separate cells. In the apical (top) chamber, human colonic epithelial cells, consisting of a mixture of enterocytes and goblet cells, were cultured until cells obtained tight junction formation and barrier function capacity as assessed by measurement of trans-epithelial electrical resistance (TEER). In the basolateral chamber, monocytes were cultured separately. Epithelial cells were primed with inflammatory cytokines. The assays measured the effect of a therapeutic protein, i.e., SG-15, on epithelial barrier function, wound healing, and production of cytokines. Cell culture. The HCT8 human enterocyte cell line (ATCC Cat. No. CCL-244) was maintained in RPMI-1640 medium supplemented with 10% fetal bovine serum, 100 IU/ml penicillin, 100 μg/ml streptomycin, 10 μg/ml gentamicin and 0.25 μg/ml amphotericin (cRPMI). HT29-MTX human goblet cells (Sigma-Aldrich (St. Louis, MO; Cat. No. 12040401) were maintained in DMEM medium with 10% fetal bovine serum, 100 IU/ml penicillin, 100 μg/ml streptomycin, 10 μg/ml gentamicin and 0.25 μg/ml amphotericin (cDMEM). Epithelial cells were passaged by trypsinization and were used between 5 and 15 passages following thawing from liquid nitrogen stocks. U937 monocytes (ATCC Cat. No. 700928) were maintained in cRPMI medium as a suspension culture, and split by dilution as needed to maintain cells between 5×10^5 and 2×10^6 cells/ml. U937 cells were used up to passage 18 following thawing from liquid nitrogen stocks. Epithelial cell culture. A mixture of HCT8 enterocytes and HT29-MTX goblet cells were plated at a 9:1 ratio, respectively, in the apical chamber of the transwell plate as described previously (Berget et al., 2017, Int J Mol Sci, 18:1573; Beduneau et al., 2014, Eur J Pharm Biopharm, 87:290-298). A total of 10^5 cells were plated in each well (9×10^4 HCT8 cells and 1×10^4 HT29-MTX cells per well). Epithelial cells were trypsinized from culture flasks and viable cells determined by trypan blue counting. The correct volumes of each cell type were combined in a single tube and centrifuged. The cell pellet was resuspended in cRPMI and added to the apical chamber of the transwell plate. […] Monocyte culture. On day 6 of epithelial cell culture 2×10^5 cells/well U937 monocytes were plated into a 96 well receiver plate. […] Co-culture assay. […] After 24 hours fresh cRPMI was added to the epithelial cell culture plate. Trans-epithelial electrical resistance (TEER) readings were measured after the IFN-γ treatment and were used as the pre-treatment TEER values. SG-15 was then added to the apical chamber of the transwell plate at a final concentration of 1 μg/ml (40 nM). The myosin light chain kinase (MLCK) inhibitor peptide 18 (BioTechne, Minneapolis, MN) was used at 50 nM as a positive control to prevent inflammation induced barrier disruption (Zolotarevskky et al., 202, Gastroenterology, 123:163-172). The bacterially derived molecule staurosporine was used at 100 nM as a negative control to induce apoptosis and exacerbate barrier disruption (Antonsson and Persson, 2009, Anticancer Res, 29:2893-2898). […] Following pre-incubation with test compounds the transwell insert containing the enterocytes was transferred on top of the receiver plate containing U937 monocytes. Heat killed E. coli (HK E. coli) (bacteria heated to 80° C. for 40 minutes) was then added to both the apical and basolateral chambers and a multiplicity of infection (MOI) of 10. […] The TEER assays were performed with recombinantly expressed mature (lacking a signal peptide) SG-15 protein such as that described in Example 1A above. Data analysis. Raw electrical resistance values in ohms (Ω) were converted to ohms per square centimeter (Ωcm^2) based on the surface area of the transwell insert (0.143 cm^2). […]

DSS treated mice = experiment: DSS model: gross pathology score; format: in vivo, C57BL/6 mice; settings: 50 nmoles/kg i.p. b.i.d., 2.5% DSS 6 days; for Gross pathology compared to vehicle treated DSS mice: score 0-5
Description: Eight-week old C57BL/6 mice were housed 5 animals were cage and given food and water ad libitum for 7 days. Following the 7-day acclimation period, treatments were initiated concurrently with addition of 2.5% DSS to the drinking water. […] The mice were treated with 2.5% dextran sodium sulfate (DSS) in their drinking water for 6 days. Treatments were continued with SG-15 or […]-GLP2 twice a day (b.i.d.) in the morning and evening (every 8 and 16 hr) with i.p. injections at 50 nmoles/kg. Fresh 2.5% DSS drinking water was prepared every 2 days. Gross pathology observations were made in mice included in the concurrent DSS model performed in Example 1E. […] The scoring system used was: (0)=no gross pathology, (1)=streaks of blood visible in feces, (2)=completely bloody fecal pellets, (3) bloody fecal material visible in cecum, (4) bloody fecal material in cecum and loose stool, (5)=rectal bleeding. Results are shown in FIG. 7, with the graph representing data pooled from the 2 individual experiments (n=20).

DSS model: body weight = format: in vivo, C57BL/6 mice; settings: 50 nmoles/kg i.p. b.i.d.; 2.5% DSS 6 days; percent change from day 0
Description: Eight-week old C57BL/6 mice were housed 5 animals were cage and given food and water ad libitum for 7 days. Following the 7-day acclimation period, treatments were initiated concurrently with addition of 2.5% DSS to the drinking water. […] The mice were treated with 2.5% dextran sodium sulfate (DSS) in their drinking water for 6 days. Treatments were continued with SG-15 or […]-GLP2 twice a day (b.i.d.) in the morning and evening (every 8 and 16 hr) with i.p. injections at 50 nmoles/kg. Fresh 2.5% DSS drinking water was prepared every 2 days. Body weight was measured daily from mice included in the DSS model described in Example 1E. Percent change from starting weight on day 0 was determined for each mouse. […] Weight loss in mice treated with SG-15 at day 6 was similar to weight loss observed with […]-GLP2. The graphs in FIG. 6 represent data pooled from the 2 individual experiments (n=20).

[2] = protein 1 μg/ml (40 nM) added 30 minutes before HK E. coli
[3] = protein 1 μg/ml (40 nM) pre-incubated 6 hours before HK E. coli

Molecule	TEER of epithelial cell barrier (percent of untreated samples) [1, 2]	TEER of epithelial cell barrier (percent of untreated samples) [1, 3]	Gross pathology compared to vehicle treated DSS mice (DSS treated mice)	Body weight compared to vehicle-treated DSS mice (DSS model: body weight)	Clinical scores compared with DSS mice treated with Gly2-GLP2 (DSS treated mice)
B1	60.7%	about 60.0%	did not reduce gross pathology		
B2	72.0%	about 74.2%	did not reduce gross pathology	did not alter body weight	
B3	71.0%	about 85.0%	did not reduce gross pathology	did not alter body weight	
B4	71.4%	68.5%	significantly improved gross pathology	significantly improved body weight	No differences
